Source: publication PMC2856799

Columns and labels:
Insulin (zinc-free) = Insulin (zinc-free) (UniProt P01317); assay: Composition-gradient static light scattering; conditions: pH 10.0, 25 °C, 0.095 M NaCl, 5.3 mM glycine, 3.2 mM NaOH, scale: log10
[1] = target: Insulin (Pekar and Frank 1972 preparation); assay: Sedimentation equilibrium; conditions: pH 7.0; 24.5 °C; ionic strength 0.1; not stated (pH 7.0); scale: log10; cited from earlier work

Chain of UniProt P01317 (P01317 whole entry): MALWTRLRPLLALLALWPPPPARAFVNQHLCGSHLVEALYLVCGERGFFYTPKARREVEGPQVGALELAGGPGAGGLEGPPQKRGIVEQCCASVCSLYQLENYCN

| log10(Ka) (enhanced isodesmic; monomer addition to dimer and higher oligomers) (Insulin (zinc-free)) | Substance | log10(K6a) (stepwise hexamer addition) [1] | log10(K12) (monomer-dimer) [1] | log10(K26) (3 dimers -> hexamer) [1] | log10(Ka) (isodesmic) [1] |
| --- | --- | --- | --- | --- | --- |
| 3.82 | Insulin (zinc-free) | – | – | – | – |
| – | Insulin (Pekar and Frank 1972 preparation) | 3.69 | 5.64 | 8.36 | 4.43 |
